Test results taken from publication PMC7822876, “Structural basis of ribosomal RNA transcription regulation” (Nature Communications, 2020).
Substitutions are numbered along the chain they refer to. In names and notes the source's numbering stands.

Legend:
[1] = target: T1, RNA polymerase β' subunit (E. coli, UniProt P0A8T7 1-1407); assay: cryo-EM structure; RP-DksA/ppGpp: RNAP (20 μM) preincubated with DksA (100 μM) and ppGpp (2 mM) 5 min at 37 °C in 10 mM HEPES pH 8.0, 50 mM NaCl, 0.1 mM EDTA, 5 mM DTT, 5 mM MgCl2, then rrnBP1 DNA (40 μM) 5 min at 37 °C; 8 mM CHAPSO; two classes, RP1-DksA/ppGpp (3.62 Å) and RP2-DksA/ppGpp (3.58 Å); conditions: both partners purified
T1 construct: RNA polymerase β' subunit, E. coli; As it stands in the holoenzyme m1; also called β’clamp; β’clamp-toe (β’CT)

RNA polymerase β subunit = target: T2, RNA polymerase β subunit (E. coli, UniProt P0A8V2 1-1342); assay: as above; conditions: both partners purified
T2 construct: RNA polymerase β subunit, E. coli; As it stands in the holoenzyme m1; also called βlobe/Si1; βgate loop (βGL)

[2] = target: wild-type RNAP (core RNAP with wild-type σ^70, for in vitro transcription) (E. coli) (UniProt P0A7Z4)
[3] = target: β′D256A RNAP (core RNAP with β′ D256A and wild-type σ^70) (E. coli) (UniProt P0A7Z4)
[4] = target: ΔσAL RNAP (wild-type core RNAP with σ^70 lacking the acidic loop) (E. coli) (UniProt P0A7Z4)
[5] = target: Δσ1.1-RNAP (wild-type core RNAP with σ^70 lacking region 1.1) (E. coli) (UniProt P0A7Z4)

B1: DksA (natural protein, E. coli)
chain: MQEGQNRKTSSLSILAIAGVEPYQEKPGEEYMNEAQLAHFRRILEAWRNQLRDEVDRTVTHMQDEAANFPDPVDRAAQEEEFSLELRNRDRERKLIKKIEKTLKKVEDEDFGYCESCGVEIGIRRLEARPTADLCIDCKTLAEIREKQMAG
notes: DksA used for cryo-EM, with ppGpp (2 mM) in the sample; also called global transcriptional regulator DksA
B1 was tested, and the binding result [1] was “binds”, the binding result (RNA polymerase β subunit) was “binds” and the K (d,app) of DksA from inhibition of in vitro transcription from rrnBP1 (DksA 10 nM to 10 μM), +ppGpp (100 μM) [2] was 860 nM. The K (d,app) of DksA from inhibition of in vitro transcription from rrnBP1 (DksA 10 nM to 10 μM), −ppGpp [2] was 2200 nM, the K (d,app) of DksA from inhibition of in vitro transcription from rrnBP1 (DksA 10 nM to 10 μM), +ppGpp (100 μM) [3] was 1640 nM and the K (d,app) of DksA from inhibition of in vitro transcription from rrnBP1 (DksA 10 nM to 10 μM), −ppGpp [3] was 4.54 µM. The K (d,app) of DksA from inhibition of in vitro transcription from rrnBP1 (DksA 10 nM to 10 μM), +ppGpp (100 μM) [4] was 1150 nM, the K (d,app) of DksA from inhibition of in vitro transcription from rrnBP1 (DksA 10 nM to 10 μM), −ppGpp [4] was 3000 nM and the K (d,app) of DksA from inhibition of in vitro transcription from rrnBP1 (DksA 10 nM to 10 μM), −ppGpp [5] was over 10 µM.

B2: DksA D137A (natural protein)
chain: B1 chain with D137A
B2 gave a K (d,app) of DksA D137A from inhibition of in vitro transcription from rrnBP1 (DksA 10 nM to 10 μM), +ppGpp (100 μM) [2] of 2440 nM and a K (d,app) of DksA D137A from inhibition of in vitro transcription from rrnBP1 (DksA 10 nM to 10 μM), −ppGpp [2] of 3.9 µM.
